From paper PMC3817407
Several values for one entry are separate records, joined by “and”; a condition that tells them apart may be missing. Identical values can stand only once.

T1: ECF01_3473
T1 chain: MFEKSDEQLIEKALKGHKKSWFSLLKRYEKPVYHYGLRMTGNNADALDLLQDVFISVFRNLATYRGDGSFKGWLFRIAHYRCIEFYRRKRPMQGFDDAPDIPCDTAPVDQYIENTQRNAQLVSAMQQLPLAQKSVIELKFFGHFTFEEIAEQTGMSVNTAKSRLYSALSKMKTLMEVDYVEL

T2: ECF02_915
T2 chain: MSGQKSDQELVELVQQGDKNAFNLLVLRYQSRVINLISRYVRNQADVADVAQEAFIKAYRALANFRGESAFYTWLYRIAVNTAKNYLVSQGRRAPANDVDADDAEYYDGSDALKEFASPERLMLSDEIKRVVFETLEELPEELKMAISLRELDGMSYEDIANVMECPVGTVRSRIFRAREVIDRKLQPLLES

T3: ECF03_1244
T3 chain: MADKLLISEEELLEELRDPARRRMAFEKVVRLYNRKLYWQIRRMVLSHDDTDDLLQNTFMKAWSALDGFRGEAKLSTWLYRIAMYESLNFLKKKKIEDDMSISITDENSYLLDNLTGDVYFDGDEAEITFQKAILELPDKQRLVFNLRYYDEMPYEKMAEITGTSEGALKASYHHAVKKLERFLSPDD

T4: ECF11_987
T4 chain: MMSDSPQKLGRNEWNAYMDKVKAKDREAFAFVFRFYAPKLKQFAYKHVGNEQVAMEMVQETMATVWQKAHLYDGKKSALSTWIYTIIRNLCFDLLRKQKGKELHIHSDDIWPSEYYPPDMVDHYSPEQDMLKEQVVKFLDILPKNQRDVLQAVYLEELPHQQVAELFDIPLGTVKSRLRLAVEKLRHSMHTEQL

T5: ECF15_436
T5 chain: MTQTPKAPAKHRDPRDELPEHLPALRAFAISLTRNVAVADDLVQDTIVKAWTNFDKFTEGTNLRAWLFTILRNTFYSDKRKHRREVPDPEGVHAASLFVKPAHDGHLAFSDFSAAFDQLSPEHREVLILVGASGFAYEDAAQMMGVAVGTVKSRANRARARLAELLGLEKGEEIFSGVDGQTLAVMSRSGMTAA

T6: ECF16_3622
T6 chain: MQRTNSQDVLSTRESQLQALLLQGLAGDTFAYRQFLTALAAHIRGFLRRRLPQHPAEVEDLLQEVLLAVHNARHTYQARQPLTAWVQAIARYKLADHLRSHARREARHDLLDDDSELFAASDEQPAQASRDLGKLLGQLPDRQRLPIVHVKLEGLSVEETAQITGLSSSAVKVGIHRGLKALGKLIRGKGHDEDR

T7: ECF17_1691
T7 chain: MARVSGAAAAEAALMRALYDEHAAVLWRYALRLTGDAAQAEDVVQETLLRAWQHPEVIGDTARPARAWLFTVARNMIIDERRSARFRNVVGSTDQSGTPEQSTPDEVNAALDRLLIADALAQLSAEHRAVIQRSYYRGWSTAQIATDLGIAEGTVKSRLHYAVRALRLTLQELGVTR

T8: ECF25_1643
T8 chain: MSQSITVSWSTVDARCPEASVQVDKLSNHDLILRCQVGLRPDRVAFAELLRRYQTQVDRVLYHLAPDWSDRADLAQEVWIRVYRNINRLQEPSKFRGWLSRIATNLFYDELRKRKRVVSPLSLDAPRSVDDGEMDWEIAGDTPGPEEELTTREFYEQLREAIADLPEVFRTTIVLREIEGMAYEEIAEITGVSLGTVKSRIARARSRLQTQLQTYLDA

T9: ECF25_1645
T9 chain: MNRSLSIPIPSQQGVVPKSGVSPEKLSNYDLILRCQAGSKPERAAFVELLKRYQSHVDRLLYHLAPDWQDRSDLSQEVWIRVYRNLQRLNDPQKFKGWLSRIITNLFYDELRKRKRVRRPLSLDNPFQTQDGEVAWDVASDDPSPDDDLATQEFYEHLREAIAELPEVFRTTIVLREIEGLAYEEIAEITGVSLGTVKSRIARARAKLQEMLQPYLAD

T10: ECF28_1040
T10 chain: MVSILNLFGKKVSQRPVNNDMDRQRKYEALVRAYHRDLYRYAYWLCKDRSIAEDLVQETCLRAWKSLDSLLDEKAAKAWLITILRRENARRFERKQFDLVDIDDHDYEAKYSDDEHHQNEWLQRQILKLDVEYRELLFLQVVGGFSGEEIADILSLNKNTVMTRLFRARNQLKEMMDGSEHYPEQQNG

T11: ECF30_35
T11 chain: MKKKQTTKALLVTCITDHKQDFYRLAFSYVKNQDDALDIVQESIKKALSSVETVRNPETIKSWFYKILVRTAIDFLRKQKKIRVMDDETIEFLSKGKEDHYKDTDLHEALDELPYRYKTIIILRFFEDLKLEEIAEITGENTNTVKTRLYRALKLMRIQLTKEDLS

T12: ECF34_1384
T12 chain: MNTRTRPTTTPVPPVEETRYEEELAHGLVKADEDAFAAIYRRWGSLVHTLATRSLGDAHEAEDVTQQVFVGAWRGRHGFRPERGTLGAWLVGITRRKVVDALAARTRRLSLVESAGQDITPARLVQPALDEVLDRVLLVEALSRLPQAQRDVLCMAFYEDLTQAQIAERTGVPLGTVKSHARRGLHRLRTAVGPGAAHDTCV

T13: ECF35_3582
T13 chain: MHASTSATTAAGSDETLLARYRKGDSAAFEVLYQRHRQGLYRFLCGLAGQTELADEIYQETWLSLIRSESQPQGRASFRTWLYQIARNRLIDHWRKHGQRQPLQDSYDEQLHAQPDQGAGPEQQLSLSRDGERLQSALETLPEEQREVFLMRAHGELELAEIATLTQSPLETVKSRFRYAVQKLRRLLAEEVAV

T14: ECF37_2513
T14 chain: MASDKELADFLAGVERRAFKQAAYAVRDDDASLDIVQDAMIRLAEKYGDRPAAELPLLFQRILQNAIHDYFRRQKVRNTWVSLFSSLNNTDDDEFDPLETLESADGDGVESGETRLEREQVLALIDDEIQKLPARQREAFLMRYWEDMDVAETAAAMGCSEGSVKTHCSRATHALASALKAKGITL


Assays:
ECF01_3473 = target: T1, ECF01_3473
ECF02_915 = target: T2, ECF02_915
ECF03_1244 = target: T3, ECF03_1244
ECF11_987 = target: T4, ECF11_987
ECF15_436 = target: T5, ECF15_436
ECF16_3622 = target: T6, ECF16_3622
ECF17_1691 = target: T7, ECF17_1691
ECF25_1643 = target: T8, ECF25_1643
ECF25_1645 = target: T9, ECF25_1645
ECF28_1040 = target: T10, ECF28_1040
ECF30_35 = target: T11, ECF30_35
ECF34_1384 = target: T12, ECF34_1384
ECF35_3582 = target: T13, ECF35_3582
ECF37_2513 = target: T14, ECF37_2513

Row | Binder | fold repression (ECF01_3473) | fold repression (ECF02_915) | fold repression (ECF03_1244) | fold repression (ECF11_987) | fold repression (ECF15_436) | fold repression (ECF16_3622) | fold repression (ECF17_1691) | fold repression (ECF25_1643) | fold repression (ECF25_1645) | fold repression (ECF27_1331) | fold repression (ECF28_1040) | fold repression (ECF30_35) | fold repression (ECF34_1384) | fold repression (ECF35_3582) | fold repression (ECF37_2513)
1 | AS30_35 (protein) MDKRLQQLREEYKNVQIPKELDIIVEKALQQEPKKKRIVMWPTSAAIAAAILFTALVNINPDAAQAMSKIPVIGKIVKAITFIEIKEEKDQSSIDVKTPALSGLSNKELENSINEKYLKESQQLYKEFIQSTSKNKKGHLSIYSDYETVTDTPDLLSIRRNIETTQASSYTQSRYITIDKKNDILLTLKSLFKDERYIKVISQNIKEQMKQQMKEDPNKIYWLTDEDAEPFKTILPDQTFYITEDHKLVISFDEYEVAPGYMGVTEFTIPTGVISNLLVGERYIR | 1.65 | 2.15 | 1.74 | 2.11 | 1.98 | 1.39 | 1.6 | 1.46 and 1.19 | 1.69 | 2.39 | 1.32 | 55.4 | 2.04 | 6.57 | 2.3
2 | AS31_34 (protein) MNKEKLSDHLKSEWKKIDQTANPSIPNQKELLHQLSQMKAEYRKKLLQEIILFVFCALMVVSAAILAFTQAPAVFIVLQVCVLAVLPILIAAEKKRHLGECEVKRG | 1.76 | 1.32 | 2.34 | 3.03 | 2.54 | 3.01 | 2.93 | 2.25 and 1.91 | 1.99 | 2.57 | 2.22 | 1.68 | 2.98 | 2.06 | 3.38
3 | AS33_375 (protein) MMALSKKMLEQEPSEIELLLPWHAAGTLNARDARRVEDALARDPELAKQYAAIRGEYEETIHLNESLGAPSARAMQKLFGAIDAEPARETGSLPLSARIATFFASLSPRTLAWSASLGAVALVLQAGIIGAVLMKTQPTTFQTASLSTSAPITRELGAAVAPARALVRFTPEARVADITALLDSYQASIIGDAKGGMFRLQFDKAMSQDELASLLGRMQREKFVNLAVAAP | 5.29 | 4.71 | 16.3 | 17.1 | 20.3 | 22.6 | 3.94 | 5.97 and 4.93 | 5.35 | 11.4 | 3.33 | 4.68 | 12.2 | 5.86 | 13.5
4 | AS33_423 (protein) MMAMSNTMPDPREPGDVEALLPWYAAGTLNARDARRVADALDRDPALARQYAVILEEYASTIELNESLGAPSSRAMQKLFAAIDAEPARAPGAGQGLGARFAGFFAGLSPKALAWSASVAGLALLLQAGLIGALLTWPHAAPVQTAAYQPQREVARAPASSPAPATVSPPAAAMADRAADAGKSTPPMVMAERSGGPVVRSLAPQSGPRVLVKFAPEARASEIAALLDQYNAVVVDSSRGGLFRLQFGTQSLSKQDQETLIGRLQKEPVVSVVLSAP | 3.36 | 4.97 | 13.5 | 13.7 | 14.3 | 35.1 | 3.16 | 3.19 and 2.96 | 3.68 | 8.68 | 2.67 | 3.09 | 8.97 | 6.37 | 10
5 | AS35_3582 (protein) MNPQKHSASVAEEQMLAHFRAHAPQQPAPALDQAILAAARRQAAHVEPARSWWRRWLEASRRPRWQAAFASLLGVALVLGLVSHNVLDDAERQARPEVAFSDVPLRDGVAGAAAAKRAMRAPAAPAPLSGEMSEPPALLASYASSGEAPQLMAEAAPPAPAALADRPPAQAAQQAKVQAALAGDFVAQARGKAVAVKPEVLDEALGAVLALREQGKTEQAATQLAELQKRFPGENLVERLERLATIAASARKRP | 5.93 | 3.95 | 4.18 | 9.63 | 7.43 | 6.44 | 4.63 | 5.68 and 4.69 | 3.79 | 7.23 | 2.76 | 2.03 | 9.31 | 311 | 8.97
6 | AS37_2513 (protein) MSSAPATKEEVDFALKVRRALDERAASLPDATTDRLAAARRAALARKKPDAAIVLVPALAGSAGTLELRPPGEPRKSLARRLARAWPLALLLAGLIGIAYWEDMQRTAELADIDAAMLSDNLPLTAYLDHGFNAYLSHTH | 6.84 | 2.67 | 3.44 | 9.25 | 5.3 | 5.36 | 4.17 | 5.22 and 5.59 | 3.92 | 6.45 | 2.67 | 3.08 | 6.47 | 2.62 | 13.5
